Data: paper PMC11867700, “TANGO2 is an acyl-CoA binding protein” (The Journal of Cell Biology, 2025)

Target: the molecule itself
Assay: mass photometry; purified TANGO2.Flag; mass distribution; conditions not described

B1: TANGO2 isoform 1-Flag (TANGO2.Iso1-Flag), purified (natural protein, human, UniProt Q6ICL3-1 1-276, looked up)
chain: MCIIFFKFDPRPVSKNAYRLILAANRDEFYSRPSKLADFWGNNNEILSGLDMEEGKEGGTWLGISTRGKLAALTNYLQPQLDWQARGRGELVTHFLTTDVDSLSYLKKVSMEGHLYNGFNLIAADLSTAKGDVICYYGNRGEPDPIVLTPGTYGLSNALLETPWRKLCFGKQLFLEAVERSQALPKDVLIASLLDVLNNEEAQLPDPAIEDQGGEYVQPMLSKYAAVCVRCPGYGTRTNTIILVDADGHVTFTERSMMDKDLSHWETRTYEFTLQS
notes: TANGO2 isoform 1, human, UniProt Q6ICL3-1; C-terminal in-frame fusion with the Flag peptide; also called TANGO2.Flag; purified TANGO2
B1: binds.
